Measured values: the DeepSol protein solubility set

Experiment: soluble on expression in E. coli; label from the status in PepcDB or PDB records

Sequence	soluble on expression in E. coli
MAHHHHHHMGTLKAIIAPSVLASNISKLAEETQRMESLGAEWIHLDVMDMHFVPNLSFGPPVINNLKKYTKSIFFDVHLMVEYPEKYVPLLKTSNQLTFHFEALNEDTERCIQLAKEIRDNNLWCGISIKPKTDVQKLVPILDTNLINTVLVMTVEPGFGGQSFMHDMMGKVSFLRKKYKNLNIQVDGGLNIETTEISASHGANIIVAGTSIFNAEDPKYVIDTMRVSVQKYLNN	soluble
MAHHHHHHMRTSAAVLSLFRGQRRLSCTMTAPLATRRFCRSTGDGLQKDWRPLSTTPHQPGPDTPASPSSSKSSANLDACEGALRAAPEGPASSKRGSSFASLALQRGSGEKANRMDRTAGLYKHTIVTETDKAPTGVARSATASSVSTGAGLTAERKKYATIPLRHCGTRAEPGNGSRSASSPPSASNSKREMTAQTEAPKTIKTAARPQDGPMVPDYGPLRATGLWSVEEVLDESKKTVDFRRIDDVESEIIEDHTNAEEALVPYAEEEAWKHKLMFEYKFKKTPKHLTWKEMGEEIECMDCVIELDEHRPEELFTIFFYFTDKKTGTRDLVWSARNDVSYSEGFTDLLAAIGACLGRSDVHRTIRFDDGVGCTRDLTFRKRSRYTSDVYVAFRPPEKYDKFQRKEEKDEYEASMEREGMSTWGYHPSLMDPEFSELDFKDPEGTYEVAISAHGFSFVVLRAIGRLLARPMKDFYRPSQLMRTAKVRTEDEIGFTHALKGWLGVDEQLYPHYTPIEALQDHWLGKDAPFSLCAIVNKLREMNYLKKENPEFQSWLSVRSHDTHLAIRNMGVKLLGVGASTLFVPVSHNATVNRLLPKPQQRRLESRFSLNAVLGLPDETRKLKDFKQITGHDRITDVPTSSTRETATIASPAQDEASVKNSPT	not soluble
MADDDDRVDISNETLASLVGRPMSSSGNRIRATPSRRRLVSAPTNPRWSPSADDRRLFSYVSSMRSDSNSSSKSPSPPSAKMSKRPNGPYSVRKYQPRGSPPSDGSDKIHRFGESPTPGGVGGVFGTELDDLIIDELMGMEDDQRMRPGATRPMTIGGEKTMSMARPIPGASSRAGSGHSGSPITIPNAMSNNFRQVVSSSAPTSSIDIEKMIGAVSNGGGNSGGDNDPEDYYRDRRKKDIHNMIERRRRYNINDRIKELGQMLPKNTSEDMKLNKGTILKASCDYIRVLQKDREQAMKTQQQQKSLESTAHKYADRVKELEEMLARQGVQVPPSHLPPIPKVIERPIKQEIDESPPNHTPTGSFVSSSGFLSEVTNNTAAMQITSPNDSRPNNFMNNSAPSDSFFSVGSASPPDYRTSSGTASWKLPGSNAFSDLMMDDLNPMMNGDPLISSAGAHPSPHFHSSQMSPDIHWDASGFSPDPINTQQSNSGHYHMDFS	not soluble
GMNDLKRLPYEPVKGLLPRPAVGTSERVITLPEPDRTSGMPLMGTLWLRKSTREFDQQPLPLKQLSELLWAAAGVNRSLGGGRTAPSPYGETVIDVYVALPAGLYRYDPVHHCLELKRAADLRSMTGYQDFVGMAPLDLVFVANHGRMQEMPPKLRETFSAAAAGAMAENAYLYCASAGLGAVVRGWLNRRQLAEHMSLNEDEEPILSQTIGRAASHVTTTQA	soluble
MKEEIIIAGFGGQGVLSMGKILAYSGLMEGKEVTWMPAYGPEQRGGTANVTVIVSDDKISSPILSKYDTAIILNQPSLEKFESRVKPGGILIYDGYGIINPPTRKDIKVYRIDAMDAANEMNNAKAFNMIVLGGLLKLRPIVTLENVVKGLKKTLPERHHHLIPMNEEAIKKGMELIRE	not soluble
MTTEHETHAAELGAPEPECARCGKVLPLCICDTVEPIASRTQLLILQHPQEQDRALGTARLTAQHFKNAEVRIGLSWPSLSKALGRTVHDPSRWAVLYLGSARAAELAEGREILAVDAKGQPEPHQDMILDEIEGVVLLDGTWSQAKALWWRNAWMLKCQRVILDPSAPSRYGRLRKEPRRDGLSTLEAAAMLLSRLEHRPEIETKLLEAFDRMLARFKQVQAERPDLAPKPKKRDWRRKKRGLEHHHHHH	not soluble
MKTLSKQDNTMEWLVKKSCCNKQDNRHVLMLCDAGGAIKMIAEVKSDFAVKVGDLLSPLQNALYCINREKLHTVKVLSASCYSPDEWERQCKVAGKTQ	soluble
SNQEKLAKLQAQVRIGGKGTARRKKKVVHRTATADDKKLQSSLKKLAVNNIAGIEEVNMIKDDGTVIHFNNPKVQASLSANTFAITGHAEAKPITEMLPGILSQLGADSLTSLRKLAEQFPRQVLDSKAPKPEDIDEEDDDVPDLVENFDEASKNEAN	soluble
MQNPFVPQLVYIEPRALEYPLGQELQDKFENMGIEIRETTSHNQVRNIPGKNHLQQYRNAKSTLVIGVRKTLKFDSSKPSAEYAIPFATGCMGHCHYCYLQTTMGSKPYIRTYVNVEEILDQADKYMKERAPEFTRFEASCTSDIVGIDHLTHTLKRAIEHFGQSDLGKLRFVTKFHHVDHLLDAKHNGKTRFRFSINADYVIKNFEPGTSPLDKRIEAAVKVAKAGYPLGFIVAPIYIHEGWEEGYRHLFEKLDAALPQDVRHDITFELIQHRFTKPAKRVIEKNYPKTKLELDEEKRRYKWGRYGIGKYIYQKDEEHALREALESYIDTFFPNAKIEYFT	not soluble
MKGIEVENLKFSHNGREILHDINFEIDKGSFLIILGPNGAGKTTLLRCIAGILKYKGSIKVLGNDIKELSRIELAKLLAYVPQRIEPGFLRVFDFVLLGRKPYMGLNPGRKDLKAVEDALRLLGIQRLEDRIMKTLSGGELQKVAIARAIAQETPVILLDEPTNNLDPKSQIEVMEIIKDLVKRGKTVVTVMHDLTLALRFGEEFLFLKDGRSTGLLTREELEEKILSETYGVKIRVARVEGEVIPLVGL	soluble
DCLLPIVAAPMAGGPTTVALAQAVSGVGGFPFLAGGYKSVEALATEIAVLRASGGNFGVNLFVPSPDMVDAEAFRIYAAKLQSEALPYGLRLDPLPVMGDDDGWPDKLALLLNDPVPVVSFTFGLPAVRDIAALRCAGSRVLASVTLPAEAQAAMEAGVDGLVVQGPDAGGHSATYDPGRPFTPLKTVSLVRRVCAVSSLPVIAAGGVDGPVMVRALLQAGAAAVAIGTLLLRTKESGATQVHKDALANPAYTETVITHAFTGRPARTLRNGFVNRYHASAPLGYPAIHHLTRPLRQAAASAGDADVLHLWAGTGYRQAMDGSAVDVIQ	not soluble
MGSDKIHHHHHHMTPVLSLDMEDPIRFIDENGSFEVVKVGHNLAIHGKKIFDELAKRNLKIILDLKFCDIPSTVERSIKSWDHPAIIGFTVHSCAGYESVERALSATDKHVFVVVKLTSMEGSLEDYMDRIEKLNKLGCDFVLPGPWAKALREKIKGKILVPGIRMEVKADDQKDVVTLEEMKGIANFAVLGREIYLSENPREKIKRIKEMRL	soluble
MAHHHHHHMVFSIPSYLCLGDRPKKVVDERLHGVNFLTSRPKTGHYPDALFDKEFRYVYNGDRYPDPETMARREQMENRKRYITATGFISVFRPKKGEGLGSNYGLLQQEPYIHMPDHPQTRGPQPFPKVKPRQIYTSPSKAGSYGTPGLAITDIGNEYIATIYDQERINAKKERDVWRQRMPPVPFKPVGRRGYTFDEGPATGVSMCYIMTCPFREKRVQPVMKHFIIDKMWLPAGYIPDRPPPVEYWEDPYNGFDPRVDPKSRLKKSEDSIFRTGFRGDNFFYTRSIVFRRL	not soluble
MGSDKIHHHHHHVPPLRLAIVGDIHDQWTLADQQLLLQLQPDLTLFVGDFGNESLALVQAIAAIPLRKAVILGNHDAWYTATRWRRSQCPYDWMRENRFEQQLEALGGLHIGYGRLDFPEWNLSVVGGRPCSAGGSQWQHRRFYRHYYQVGSFPESAQRIADCAIASPCDRVLFLAHCGPSGLGDQPEDPCGKDWSRPGGDFGDPDLAMAIAQVQAQKVVPLVCFGHMHHRLRHRRDRPRRSWHRDTAGTVYLNAAASPRILKAQQTTLHHLLWVELSDSLVTAQQTWWTPAGVLVQSEELPLVPQPA	not soluble
GPGSMPPRRKSECLSSYAVDTTPSFQDEKFIEQLLHFVGANDEVSLLTMTAVALGAECYQVDLGQQIVVDARLDFINFCAKQGYCAAKVVHLLKWLCTFQERVEDGCNTQEMQEEVIAFVTSEVEEEWKWKRALQAEEALWEVQSSSKTSARRGHRAAEKVVEETEAVSTVPKENIYLQREDIGPFSTWLIQGIVQHASLYHYVATHARMVGEPEEFNYFLEVPVSAPPLRNALAPESVPQEPPLAKAQQDVEEQRASELETYKKEYEEAMALEQLRLQTIQNERDMKVFIENEGSMRAVEDTYESLQVDLSKRQRQILERITAAEKALGIFPFVQPQ	not soluble
FSDTLEESSPIAAIFDTENLEKISITEGIERGIVDSITGQRLLEAQACTGGIIHPTTGQKLSLQDAVSQGVIDQDMATRLKPAQKAFIGFEGVKGKKKMSAAEAVKEKWLPYEAGQRFLEFQYLTGGLVDPEVHGRISTEEAIRKGFIDGRAAQRLQDTSSYAKILTCPKTKLKISYKDAINRSMVEDITGLRLLEAASVSSKGLPSPYNMSSA	soluble
MGSDKIHHHHHHMKELFEFNNVSFSYKDVKEQALVDLNFSIKKGSLTLITGSSGSGKSTLLKLMNGLIPRLYDGKLVGEILFENNSLQSLTQESISKNIGYVSQDPRGQFFTTNTTSELVFSMENFGFTKEHMDKRINELAELLDLSNILDKNIFSLSSGERQKISIGCSLSLNSKLIILDEPSSNLDFQATKKLADLLCDLKNKGFTIVIAEHRFYYLKELIDQVLFVKNRTVKTTTIQLLKTENNNALRKFDIFNSSIEVPYIEKASADVLKVEEITYENILKDINFDVKVGDVIGLVGKNGVGKTTLLRILMKIIRPTKGKIIENKKNLSSPFLVMQEMDYQFFTESVRSELALGNEIVSKDQQEKILKKMELYKMKDQLPFDLSGGEKQRLLVSIASLSKTNLFLFDEPTSGLDYINMERIADLIKDLKEKGAVVIATHDPEFLYKICNRIIYLKNGGIKKDIKLRVEDSTLIEQIFNDITK	not soluble
MGSDKIHHHHHHALKKIYPHATNVSWSQQGNYYVASFTQNGFEKEVWMNGNAQWVMTNTDLQTTDQLTPNVYNDFTLSPYAMWTATNVNLIEFPKRTTLYVITVNLNNSSATKQLFYTLNGRLLQTRDVSYINPTLSPGIFEF	not soluble
MWAFRTARIGSLLAATSVILRRCLRLGVAMAKSKFEYVRNFEVQDTCLPHCWVVVRLDGRNFHRFAEEHNFAKPNDSRALHLMTKCAQTVMEELEDIVIAYGQSDEYSFVFRKKSNWFKRRASKFMTLVASQFASSYVFYWRDYFEDQPLRYPPGFDGRVVLYPSNQTLKDYLSWRQADCHINNLYNTVFWALIQQSGLTPVQAQQRLKGTLTADKNEILFSEFHINYNNEPHMYRKGTVLVWQKVEEVRTQEVRLPAEMEGEKKAVARTRTRVVALNCDLIGDAFWKEHPEILAEEN	soluble
PFEPLITAVIETSLNTLIKDDPALGRRLARLKGQVIQVHLKEIDKTLTFVFSQQIDVLGNYEGQPDCYLSLNLSVLPELRDQANITRLIKQDKLELEGDIQLAQKFSQLMTDCKPDIEEWLSRVTGDVVAHTLVQGTKNVGGFFVSQAEKHQRHLAQVVTEEWKLAPAPLEVAYFCDQVDEVRSQASRVEARLNALLSKVGSDKPA	not soluble
MKQSKIIVAGIGPGSEQDITPAVLAAVREADVVVGYKYYFRFIRDFVRPDAECIDTGMKRERARAEQAFEYAEQGKTVCVISSGDAGIYGMTPLIYEMKRERQSNVEIIALPGI	not soluble
MGSDKIHHHHHHMGFKEDFMGNAPGACPFLHLVERSTSDVLEQAEALPFWSQDYTQLSKGAFSGSVTSVSCDGLQIFTETMNQAVDQIASAPVDSYVMGLPTLVDGESTWGLLPITTNSLITLEKNAELYFKTSNISEITAAVIPAQRLETYAAEVEWIDLSKVMEGLKPVEMLHPDIAQQLLSALQGGIQYKADIADNIHAHQMWRNFEDDLLSTCLHTLLHVRGNIHPHFDQRLPRYLVNRVRDYTLSNSALPLTIGELCKSLRVSRRTLNHAFIRVLGITPVAYIRNLRLHRVRFEMQQSPHEVISIAHLATKWGFWHLSLFSRYYRELFGECPIDTLQRARLESKRP	not soluble
